B1: chimeric antibody 317 (antibody, V domains shown)
VH: EVKLVESGGGLMKPGGSLKLSCAASGFTFSSYDMSWVRQTPEKRLEWVATISGGGSYTYYPDSVKGRFTISRDNAKNNLYLQMSSLRSEDTALYYCASPDSSGVAYWGQGTLVTVSA
VL: DIVMTQSHKFMSTSVGDRVSITCKASQDVETVVAWYQQKPGQSPKLLIYWASTRHTGVPDRFTGSGSGTDFTLTISNVQSEDLADYFCQQYSRYPWTFGGGTKL
B2: Clone 317 (murine antibody 317, hybridoma supernatant) (antibody, mouse IgG1, V domains shown)
VH: B1 VH
VL: B1 VL
notes: tested as hybridoma supernatant
B3: h317 variant antibody, light chain R93N (antibody, V domains shown)
VH: EVQLVESGGGLVKPGGSLRLSCAASGFTFSSYDMSWVRQAPGKGLEWVATISGGGSYTYYPDSVKGRFTISRDNAKNSLYLQMNSLRAEDTAVYYCASPDSSGVAYWGQGTLVTVSS
VL: DIVMTQSPLSLPVTPGEPASITCKASQDVETVVAWYLQKPGQSPRLLIYWASTRHTGVPDRFSGSGSGTDFTLKISRVEAEDVGVYYCQQYSNYPWTFGQGTKL
notes: Variant of h317
B4: h317 variant antibody, light chain V32A (antibody, V domains shown)
VH: B3 VH
VL: B3 VL with V32A, N93R
notes: Variant of h317
B5: h317 variant antibody, light chain Y91A (antibody, V domains shown)
VH: B3 VH
VL: B3 VL with Y91A, N93R
notes: Variant of h317
B6: h317 variant antibody, light chain W50G (antibody, V domains shown)
VH: B3 VH
VL: B3 VL with W50G, N93R
notes: Variant of h317
B7: h317 variant antibody, light chain V32Y (antibody, V domains shown)
VH: B3 VH
VL: B3 VL with V32Y, N93R
notes: Variant of h317
B8: h317 variant antibody, light chain S92N (antibody, V domains shown)
VH: B3 VH
VL: B3 VL with S92N, N93R
notes: Variant of h317
B9: h317 variant antibody, light chain Y94F (antibody, V domains shown)
VH: B3 VH
VL: B3 VL with N93R, Y94F
notes: Variant of h317
B10: h317 variant antibody, light chain Y91F (antibody, V domains shown)
VH: B3 VH
VL: B3 VL with Y91F, N93R
notes: Variant of h317
B11: h317 variant antibody, light chain R93S (antibody, V domains shown)
VH: B3 VH
VL: B3 VL with N93S
notes: Variant of h317
B12: h317 variant antibody, light chain W96Y (antibody, V domains shown)
VH: B3 VH
VL: B3 VL with N93R, W96Y
notes: Variant of h317
B13: h317 variant antibody, light chain W96G (antibody, V domains shown)
VH: B3 VH
VL: B3 VL with N93R, W96G
notes: Variant of h317
B14: h317 variant antibody, light chain W50A (antibody, V domains shown)
VH: B3 VH
VL: B3 VL with W50A, N93R
notes: Variant of h317
B15: h317 variant antibody, light chain T56S (antibody, V domains shown)
VH: B3 VH
VL: B3 VL with T56S, N93R
notes: Variant of h317
B16: h317 variant antibody, light chain S92D (antibody, V domains shown)
VH: B3 VH
VL: B3 VL with S92D, N93R
notes: Variant of h317
B17: h317 variant antibody, light chain T56S and S92N (antibody, V domains shown)
VH: B3 VH
VL: B3 VL with T56S, S92N, N93R
notes: Variant of h317; also called 56S(CDR2) 92N(CDR3)

Where a chain is given by its changes, count along the chain named. Numbers in names are those of the source.

T1 sequence (Q15116 21-167 limits assumed, form in doubt): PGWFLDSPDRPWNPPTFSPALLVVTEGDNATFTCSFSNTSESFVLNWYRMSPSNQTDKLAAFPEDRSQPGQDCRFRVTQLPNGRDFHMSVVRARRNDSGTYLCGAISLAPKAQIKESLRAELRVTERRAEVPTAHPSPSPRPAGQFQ
T2 sequence (B0LAJ3 entry or part of it C08H C08H limits assumed): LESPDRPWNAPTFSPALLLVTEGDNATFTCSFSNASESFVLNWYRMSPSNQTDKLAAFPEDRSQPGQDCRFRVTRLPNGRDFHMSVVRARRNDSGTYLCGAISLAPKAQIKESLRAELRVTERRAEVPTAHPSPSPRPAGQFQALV

The first assay concerns the target T1, recombinant human PD-1/His protein (NCBI accession No.: NP_005009.2, 21aa-167aa, Lot: 2016.2.22) (human, UniProt Q15116 21-167).
T1 construct: range 21-167; also called recombinant human PD-1 extracellular domain protein; not shown: His tag
As to the kind of experiment: BLI (Fortebio BLITZ), antibody captured on AHC sensor, PD-1-His in solution. How it is done:
The light chain variable region gene and heavy chain variable region gene of the monoclonal antibody obtained through cloning, with cleavage sites of restriction enzymes introduced by PCR using the following primers (Table 3), were respectively cloned into the upstream of gene encoding human-kappa light chain constant region and the upstream of gene encoding the human IgG4 heavy chain constant region carried in eukaryotic expression vectors. […] The affinity of the antibody was determined by the anti-human antibody capture assay with Fortebio (BLITZ pro1.1.0.28). For the determination, anti-Human IgG Fc Capture (AHC) biosensors were soaked in PBS for 10 min. […] Subsequently, the AHC biosensors were reacted with the diluted recombinant human PD-1-His protein (NCBI accession No.: NP_005009.2, 21aa-167aa, Lot: 2016.2.22) of different concentrations (1 μM, 0.6 μM and 0 nM) for binding for 45 s, and was then transferred into PBS for dissociating for 120 s.
Turning to B1, the Kd was 2.64 nM, the koff was determined as 0.000566 s⁻¹ and the kon stood at 215000 M⁻¹ s⁻¹.

A further assay addresses T2, cynomolgus monkey PD-1 (Cat: 90311-C08H, Sino Biological Inc.) (cynomolgus monkey, UniProt B0LAJ3 25-170).
T2 construct: Bought recombinant protein; not shown: The vendor's tag
Briefly: ELISA, plate coated with the PD-1 protein at 1 µg/mL, hybridoma supernatant diluted 100 times. The method, then: (§1) A plate was coated with recombinant human PD-1/His protein (NCBI accession No.: NP_005009.2, 21aa-167aa, Lot: 2016.2.22), cynomolgus monkey PD-1 (Cat: 90311-C08H, Sino Biological Inc.), rat PD-1 (Cat: 80448-R08H, Sino Biological Inc.) and mouse PD-1 (Cat: 50124-M08H, Sino Biological Inc.) in a concentration of 1 μg/mL overnight at 4° C., washed three times with PBS subsequently, and 5% BSA-PBS was added for blocking for 60 min at 37° C. The plate was washed three times with PBST afterwards, and supernatants of the hybridiomas diluted 100 times were added and incubated for 60 min at 37° C. Again, the plate was washed four times with PBST, HRP-Goat anti-mouse IgG (Fcγ) (Cat: 115-035-071, Jackson Immuno Research) with a dilution of 1:5000 was added for a 30 min incubation at 37° C. Once again, the plate was washed four times with PBST, and TMB substrate was added for developing color through incubating for 10 min at 37° C., then the reaction was terminated by adding 2 M HCl. With 630 nm as reference wavelength, the absorbance at 450 nm (A450 nm-630 nm) of each well in the plate was read and recorded.
(In an ELISA, binding on a coated surface is turned into a signal by an enzyme label.)
Regarding B2, the binding result is reported as “binds”.

The target of a further assay is T3, rat PD-1 (Cat: 80448-R08H, Sino Biological Inc.) (rat, UniProt D3ZIN8 25-169).
T3 construct: Bought recombinant protein; also called recombinant rat PD-1; not shown: The vendor's tag
T3 sequence: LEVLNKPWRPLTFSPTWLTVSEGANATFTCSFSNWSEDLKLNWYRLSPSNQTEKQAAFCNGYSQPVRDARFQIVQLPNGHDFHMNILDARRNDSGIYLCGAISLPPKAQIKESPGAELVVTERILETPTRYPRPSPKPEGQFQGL
The assay is described as above. The method, then: as §1
As for B2, the binding result is “no binding (tested: single dilution, no concentration shown)”.

The next assay concerns the target T4, mouse PD-1 (Cat: 50124-M08H, Sino Biological Inc.) (mouse, UniProt Q02242 25-167).
T4 construct: Bought recombinant protein; also called recombinant mouse PD-1
T4 sequence (looked up): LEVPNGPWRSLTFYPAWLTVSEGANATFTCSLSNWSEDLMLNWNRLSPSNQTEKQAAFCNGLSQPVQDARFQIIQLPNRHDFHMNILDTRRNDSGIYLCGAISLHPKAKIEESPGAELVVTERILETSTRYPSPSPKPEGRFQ
Described as above. The method, then: as §1
Take B2: the binding result is reported as “no binding (tested: single dilution, no concentration shown)”.

Another assay deals with T5, recombinant human PD-1 protein (NCBI accession No.: NP_005009.2, 21aa-167aa) (human, UniProt Q15116 21-167).
T5 construct: range 21-167; also called recombinant human PD-1 extracellular domain protein; PD-1-ECD
T5 sequence (Q15116 21-167 limits assumed, form in doubt): as the sequence (Q15116 21-167 limits assumed, form in doubt) above
As to the kind of experiment: BLI Octet QKe, antibody on the sensor, single 100 nM PD-1. The method, then:
Determination of the binding kinetics: the affinity of the antibody was determined with Octet QKe system from Fortebio using an assay of capturing biotin-labeled antibody with streptavidin. […] Both the binding and dissociating were conducted for 300 s.
The comparison of affinity between the variant antibodies and the parent antibody was performed using Octet QKe system supplied by Fortebio.
(In general: BLI is a label-free optical method that tracks binding on a fibre tip over time.)
On to B3, for which the Kd amounted to 36.4 nM.
For the molecule B4, the Kd is 6.21 nM.
On the same count and under the same terms, then B5, with 51.2 nM.
Same read-out and setting: then B6, with 61.4 nM.
On to B7, for which the Kd was found to be 9.81 nM.
The same measure, in the same setting: then B8, with 3.49 nM.
Take B9: the Kd came out at 6.81 nM.
On the same count and under the same terms, then B10, with 47.6 nM; and B11, with 7.94 nM.
Turning to B12, the Kd was determined as 412 nM.
In the case of B13, the Kd is 15.3 nM.
Same read-out and setting: then B14, with 12.3 nM.
Still for that read-out and setting: then B15, with 3.02 nM; and B16, with 7.52 nM; and B17, with 3.98 nM.

Broadly, the Kd is the equilibrium constant for the complex coming apart. As usually defined, the koff is the first-order rate constant of dissociation. In general, kon refers to a measure of how fast the partners come together.

Values taken from patent publication US20230104769A1 (MABWELL SHANGHAI BIOSCIENCE, published 2023).
